Data as given in paper PMC7952371.

Target: T1, mixed lineage pseudokinase ligand (human (endogenous in post-mortem brain grey matter)), Q8NB16
T1 chain: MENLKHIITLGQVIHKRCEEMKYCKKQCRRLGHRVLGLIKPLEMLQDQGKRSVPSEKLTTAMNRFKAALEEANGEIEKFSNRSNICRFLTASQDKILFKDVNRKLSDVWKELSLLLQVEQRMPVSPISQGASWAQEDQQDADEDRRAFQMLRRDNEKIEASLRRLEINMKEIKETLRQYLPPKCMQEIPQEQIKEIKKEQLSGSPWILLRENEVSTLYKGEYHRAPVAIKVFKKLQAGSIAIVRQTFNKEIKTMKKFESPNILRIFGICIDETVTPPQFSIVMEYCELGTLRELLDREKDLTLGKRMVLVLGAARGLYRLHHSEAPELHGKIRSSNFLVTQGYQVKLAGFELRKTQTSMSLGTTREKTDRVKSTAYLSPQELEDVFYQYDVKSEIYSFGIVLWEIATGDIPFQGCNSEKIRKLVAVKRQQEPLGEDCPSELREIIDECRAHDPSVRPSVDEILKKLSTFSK
Test: non-reducing gel electrophoresis and Western blot; MS grey matter extracted in native conditions (TBS, 0.1% Triton X-100); 3-8% Tris-acetate gels in non-reducing conditions; blot for MLKL
Conditions: remark: other sources report otherwise

B1: mixed lineage pseudokinase ligand, Q8NB16 1-471 (natural protein)
chain: T1 chain
- stoichiometry N: 4
